The FLAb antibody collection (doi:10.1101/2023.12.08.570889)
Where a chain is given by its changes, count along the chain named.

B1: unnamed (protein)
chain 1: QVQLVQSGAEVKKPGASVKVSCKASGYIFSNYWIQWVRQAPGQGLEWMGEILPGSGSTEYTENFKDRVTMTRDTSTSTVYMELSSLRSEDTAVYYCARLYYGDTPIIYFDYWGQGTLVTVSS
chain 2: DIQMTQSPSSLSASVGDRVTITCGASENIYGALNWYQQKPGKAPKLLIYGATNLADGVPSRFSGSGSGTDFTLTISSLQPEDFATYYCQNVLNTPLTFGQGTKVEIK
B2: unnamed (protein)
chain 1: B1 chain 1 with L99Y, Y100E
chain 2: B1 chain 2
B3: unnamed (protein)
chain 1: B1 chain 1 with L99Y
chain 2: B1 chain 2
B4: unnamed (protein)
chain 1: B1 chain 1 with L99Y, I106Y
chain 2: B1 chain 2
B5: unnamed (protein)
chain 1: B1 chain 1 with L99Y, Y100E, I106Y
chain 2: B1 chain 2
B6: unnamed (protein)
chain 1: B1 chain 1 with Y100R, I106Y
chain 2: B1 chain 2
B7: unnamed (protein)
chain 1: B1 chain 1 with L99H, I106D
chain 2: B1 chain 2
B8: unnamed (protein)
chain 1: B1 chain 1 with I28T, S30T, N31S, L52K, S57Y, L99Y, Y100R
chain 2: B1 chain 2
B9: unnamed (protein)
chain 1: B1 chain 1 with I28T, S30T, N31S, L52H, S57E, L99Y, Y100R
chain 2: B1 chain 2
B10: unnamed (protein)
chain 1: B1 chain 1 with I28T, S30T, N31S, L52K, S57Y, L99H, Y100E
chain 2: B1 chain 2
B11: unnamed (protein)
chain 1: B1 chain 1 with I28T, S30T, N31S, L52H, S57E, L99Y, Y100R, I106Y
chain 2: B1 chain 2
B12: unnamed (protein)
chain 1: B1 chain 1 with I28T, S30T, N31S, L52H, S57Y, L99Y, I106Y
chain 2: B1 chain 2
B13: unnamed (protein)
chain 1: B1 chain 1 with I28T, S30T, N31S, L52Q, S57Y, L99Y, Y100R
chain 2: B1 chain 2
B14: unnamed (protein)
chain 1: B1 chain 1 with I28T, S30T, N31S, L52H, S57Y, Y100R
chain 2: B1 chain 2
B15: unnamed (protein)
chain 1: B1 chain 1 with I28T, S30T, N31S, L52H, S57Y, L99Y, Y100R, I106F
chain 2: B1 chain 2
B16: unnamed (protein)
chain 1: B1 chain 1 with I28T, S30T, N31S, L52H, S57Y, L99Y, Y100R
chain 2: B1 chain 2
B17: unnamed (protein)
chain 1: B1 chain 1 with I28T, S30T, N31S, L52H, S57Y, L99Y, Y100R, I106D
chain 2: B1 chain 2
B18: unnamed (protein)
chain 1: EVQLLESGGGLVQPGGSLRLSCAASGFTFSQYGMDWVRQAPGKGLEWVSGIGPSGGSTVYADSVKGRFTISRDNSKNTLYLQMNSLRAEDTAVYYCTRDGPWYYYGFDVWGQGTTVTVSS
chain 2: DIQMTQSPSSLSASVGDRVTITCQASQDISNYLNWYQQKPGKAPKLLIYDASNLETGVPSRFSGSGSGTDFTFTISSLQPEDIATYYCQQADSFPVTFGGGTKVEIK
B19: unnamed (protein)
chain 1: B18 chain 1 with D99G, W102S, G106A
chain 2: B18 chain 2

biological target: C5, P01031; assay: Kd (SPR)

In order of falling Kd:
1. B14  3600 nM
2. B6  2510 nM
3. B16  2300 nM
4. B7  1700 nM
5. B15  1190 nM
6. B5  915 nM
7. B13  622 nM
8. B17  597 nM
9. B8  507 nM
10. B11  399 nM
11. B1  324 nM
12. B10  293 nM
13. B2  275 nM
14. B12  267 nM
15. B9  251 nM
16. B4  127 nM
17. B3  126 nM

biological target: FXI; assay: Kd (SPR)

In order of falling Kd:
1. B19  1370 nM
2. B18  46 nM
